From patent US20260242735A1

Experiments:
human CD33 P46F (human) = human CD33 P46F (human) (UniProt P20138); assay: flow cytometry on transfected cells, IgG
human CD33 Y49L (human) = human CD33 Y49L (human) (UniProt P20138); assay: flow cytometry on transfected cells, IgG
human CD33 P48F (human) = human CD33 P48F (human) (UniProt P20138); assay: flow cytometry on transfected cells, IgG
human CD33 Y49Q (human) = human CD33 Y49Q (human) (UniProt P20138); assay: flow cytometry on transfected cells, IgG
human CD33 I47S (human) = human CD33 I47S (human) (UniProt P20138); assay: flow cytometry on transfected cells, IgG
human CD33 P48N (human) = human CD33 P48N (human) (UniProt P20138); assay: flow cytometry on transfected cells, IgG
human CD33 P46R (human) = human CD33 P46R (human) (UniProt P20138); assay: flow cytometry on transfected cells, IgG
human CD33 P46H (human) = human CD33 P46H (human) (UniProt P20138); assay: flow cytometry on transfected cells, IgG
human CD33 P48D (human) = human CD33 P48D (human) (UniProt P20138); assay: flow cytometry on transfected cells, IgG
human CD33 P48G (human) = human CD33 P48G (human) (UniProt P20138); assay: flow cytometry on transfected cells, IgG
human CD33 I199A (human) = human CD33 I199A (human) (UniProt P20138); assay: alanine scan, flow cytometry
human CD33 Q204A (human) = human CD33 Q204A (human) (UniProt P20138); assay: alanine scan, flow cytometry
human CD33 G220A (human) = human CD33 G220A (human) (UniProt P20138); assay: alanine scan, flow cytometry
human CD33 T239A (human) = human CD33 T239A (human) (UniProt P20138); assay: alanine scan, flow cytometry
human CD33 G245A (human) = human CD33 G245A (human) (UniProt P20138); assay: alanine scan, flow cytometry
human CD33 R202A (human) = human CD33 R202A (human) (UniProt P20138); assay: alanine scan, flow cytometry
human CD33 G264A (human) = human CD33 G264A (human) (UniProt P20138); assay: alanine scan, flow cytometry
human CD33 G241A (human) = human CD33 G241A (human) (UniProt P20138); assay: alanine scan, flow cytometry
human CD33 T223A (human) = human CD33 T223A (human) (UniProt P20138); assay: alanine scan, flow cytometry
human CD33 N209A (human) = human CD33 N209A (human) (UniProt P20138); assay: alanine scan, flow cytometry
human CD33 G207A (human) = human CD33 G207A (human) (UniProt P20138); assay: alanine scan, flow cytometry
human CD33 I227A (human) = human CD33 I227A (human) (UniProt P20138); assay: alanine scan, flow cytometry
human CD33 T208A (human) = human CD33 T208A (human) (UniProt P20138); assay: alanine scan, flow cytometry
human CD33 I198A (human) = human CD33 I198A (human) (UniProt P20138); assay: alanine scan, flow cytometry
human CD33 G218A (human) = human CD33 G218A (human) (UniProt P20138); assay: alanine scan, flow cytometry
human CD33 G260A (human) = human CD33 G260A (human) (UniProt P20138); assay: alanine scan, flow cytometry
human CD33 R254A (human) = human CD33 R254A (human) (UniProt P20138); assay: alanine scan, flow cytometry
human CD33 L197A (human) = human CD33 L197A (human) (UniProt P20138); assay: alanine scan, flow cytometry
human CD33 P201A (human) = human CD33 P201A (human) (UniProt P20138); assay: alanine scan, flow cytometry
human CD33 V267A (human) = human CD33 V267A (human) (UniProt P20138); assay: alanine scan, flow cytometry
human CD33 T226A (human) = human CD33 T226A (human) (UniProt P20138); assay: alanine scan, flow cytometry
human CD33 F216A (human) = human CD33 F216A (human) (UniProt P20138); assay: alanine scan, flow cytometry
human CD33 V221A (human) = human CD33 V221A (human) (UniProt P20138); assay: alanine scan, flow cytometry
human CD33 C212A (human) = human CD33 C212A (human) (UniProt P20138); assay: alanine scan, flow cytometry
human CD33 T253A (human) = human CD33 T253A (human) (UniProt P20138); assay: alanine scan, flow cytometry
human CD33 V258A (human) = human CD33 V258A (human) (UniProt P20138); assay: alanine scan, flow cytometry
human CD33 V214A (human) = human CD33 V214A (human) (UniProt P20138); assay: alanine scan, flow cytometry
human CD33 P235A (human) = human CD33 P235A (human) (UniProt P20138); assay: alanine scan, flow cytometry
human CD33 N237A (human) = human CD33 N237A (human) (UniProt P20138); assay: alanine scan, flow cytometry
human CD33 Y233A (human) = human CD33 Y233A (human) (UniProt P20138); assay: alanine scan, flow cytometry
human CD33 A255S (human) = human CD33 A255S (human) (UniProt P20138); assay: alanine scan, flow cytometry
human CD33 L270A (human) = human CD33 L270A (human) (UniProt P20138); assay: alanine scan, flow cytometry
human CD33 A219S (human) = human CD33 A219S (human) (UniProt P20138); assay: alanine scan, flow cytometry
human CD33 Q228A (human) = human CD33 Q228A (human) (UniProt P20138); assay: alanine scan, flow cytometry
human CD33 Q236A (human) = human CD33 Q236A (human) (UniProt P20138); assay: alanine scan, flow cytometry
human CD33 Q213A (human) = human CD33 Q213A (human) (UniProt P20138); assay: alanine scan, flow cytometry
human CD33 I262A (human) = human CD33 I262A (human) (UniProt P20138); assay: alanine scan, flow cytometry
human CD33 H259A (human) = human CD33 H259A (human) (UniProt P20138); assay: alanine scan, flow cytometry
human CD33 G249A (human) = human CD33 G249A (human) (UniProt P20138); assay: alanine scan, flow cytometry
human CD33 V257A (human) = human CD33 V257A (human) (UniProt P20138); assay: alanine scan, flow cytometry
human CD33 E252A (human) = human CD33 E252A (human) (UniProt P20138); assay: alanine scan, flow cytometry

Chain of human CD33 T239A (human) (P20138 18-364 T239A limits assumed): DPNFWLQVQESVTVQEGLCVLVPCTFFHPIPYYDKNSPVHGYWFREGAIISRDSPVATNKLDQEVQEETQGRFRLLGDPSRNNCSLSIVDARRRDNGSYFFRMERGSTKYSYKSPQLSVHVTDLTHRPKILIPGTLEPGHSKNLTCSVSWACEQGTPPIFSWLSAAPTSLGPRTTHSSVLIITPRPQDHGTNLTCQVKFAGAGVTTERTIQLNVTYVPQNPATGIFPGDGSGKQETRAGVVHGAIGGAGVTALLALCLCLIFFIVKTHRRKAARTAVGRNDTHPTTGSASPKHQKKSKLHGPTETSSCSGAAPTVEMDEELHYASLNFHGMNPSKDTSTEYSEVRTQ
Chain of human CD33 G220A (human) (P20138 18-364 G220A limits assumed): as the sequence (P20138 18-364 T239A limits assumed) above, with G203A, A222T counted along it
Chain of human CD33 H259A (human) (P20138 18-364 H259A limits assumed): as the sequence (P20138 18-364 T239A limits assumed) above, with A222T, H242A counted along it
Chain of human CD33 V221A (human) (P20138 18-364 V221A limits assumed): as the sequence (P20138 18-364 T239A limits assumed) above, with V204A, A222T counted along it
Chain of human CD33 P48D (human) (P20138 18-364 P48D limits assumed): as the sequence (P20138 18-364 T239A limits assumed) above, with P31D, A222T counted along it
Chain of human CD33 V214A (human) (P20138 18-364 V214A limits assumed): as the sequence (P20138 18-364 T239A limits assumed) above, with V197A, A222T counted along it
Chain of human CD33 Q213A (human) (P20138 18-364 Q213A limits assumed): as the sequence (P20138 18-364 T239A limits assumed) above, with Q196A, A222T counted along it
Chain of human CD33 T253A (human) (P20138 18-364 T253A limits assumed): as the sequence (P20138 18-364 T239A limits assumed) above, with A222T, T236A counted along it
Chain of human CD33 G241A (human) (P20138 18-364 G241A limits assumed): as the sequence (P20138 18-364 T239A limits assumed) above, with A222T, G224A counted along it
Chain of human CD33 V257A (human) (P20138 18-364 V257A limits assumed): as the sequence (P20138 18-364 T239A limits assumed) above, with A222T, V240A counted along it
Chain of human CD33 P48N (human) (P20138 18-364 P48N limits assumed): as the sequence (P20138 18-364 T239A limits assumed) above, with P31N, A222T counted along it
Chain of human CD33 N209A (human) (P20138 18-364 N209A limits assumed): as the sequence (P20138 18-364 T239A limits assumed) above, with N192A, A222T counted along it
Chain of human CD33 I198A (human) (P20138 18-364 I198A limits assumed): as the sequence (P20138 18-364 T239A limits assumed) above, with I181A, A222T counted along it
Chain of human CD33 P235A (human) (P20138 18-364 P235A limits assumed): as the sequence (P20138 18-364 T239A limits assumed) above, with P218A, A222T counted along it

Substance: Refmab #7 (WM53) (antibody)
- Mean % WT Binding (human CD33 P46F (human)): 23 % WT binding
- Mean % WT Binding (human CD33 Y49L (human)): 1.6 % WT binding
- Mean % WT Binding (human CD33 P48F (human)): 0.2 % WT binding
- Mean % WT Binding (human CD33 Y49Q (human)): 0.7 % WT binding
- Mean % WT Binding (human CD33 I47S (human)): 33.6 % WT binding
- Mean % WT Binding (human CD33 P48N (human)): 4.3 % WT binding
- Mean % WT Binding (human CD33 P46R (human)): 33.4 % WT binding
- Mean % WT Binding (human CD33 P46H (human)): 94.3 % WT binding
- Mean % WT Binding (human CD33 P48D (human)): 0.1 % WT binding
- Mean % WT Binding (human CD33 P48G (human)): 13.3 % WT binding
- Mean % WT Binding (human CD33 I199A (human)): 115 % WT binding
- Mean % WT Binding (human CD33 Q204A (human)): 117 % WT binding
- Mean % WT Binding (human CD33 G220A (human)): 120 % WT binding
- Mean % WT Binding (human CD33 T239A (human)): 112 % WT binding
- Mean % WT Binding (human CD33 G245A (human)): 122 % WT binding
- Mean % WT Binding (human CD33 R202A (human)): 104 % WT binding
- Mean % WT Binding (human CD33 G264A (human)): 82.8 % WT binding
- Mean % WT Binding (human CD33 G241A (human)): 131 % WT binding
- Mean % WT Binding (human CD33 T223A (human)): 110 % WT binding
- Mean % WT Binding (human CD33 N209A (human)): 128 % WT binding
- Mean % WT Binding (human CD33 G207A (human)): 104 % WT binding
- Mean % WT Binding (human CD33 I227A (human)): 101 % WT binding
- Mean % WT Binding (human CD33 T208A (human)): 102 % WT binding
- Mean % WT Binding (human CD33 I198A (human)): 111 % WT binding
- Mean % WT Binding (human CD33 G218A (human)): 123 % WT binding
- Mean % WT Binding (human CD33 G260A (human)): 87.2 % WT binding
- Mean % WT Binding (human CD33 R254A (human)): 126 % WT binding
- Mean % WT Binding (human CD33 L197A (human)): 115 % WT binding
- Mean % WT Binding (human CD33 P201A (human)): 110 % WT binding
- Mean % WT Binding (human CD33 V267A (human)): 92.6 % WT binding
- Mean % WT Binding (human CD33 T226A (human)): 99.1 % WT binding
- Mean % WT Binding (human CD33 F216A (human)): 112 % WT binding
- Mean % WT Binding (human CD33 V221A (human)): 99.7 % WT binding
- Mean % WT Binding (human CD33 C212A (human)): 17.8 % WT binding
- Mean % WT Binding (human CD33 T253A (human)): 112 % WT binding
- Mean % WT Binding (human CD33 V258A (human)): 98.8 % WT binding
- Mean % WT Binding (human CD33 V214A (human)): 120 % WT binding
- Mean % WT Binding (human CD33 P235A (human)): 112 % WT binding
- Mean % WT Binding (human CD33 N237A (human)): 116 % WT binding
- Mean % WT Binding (human CD33 Y233A (human)): 109 % WT binding
- Mean % WT Binding (human CD33 A255S (human)): 121 % WT binding
- Mean % WT Binding (human CD33 L270A (human)): 99.8 % WT binding
- Mean % WT Binding (human CD33 A219S (human)): 121 % WT binding
- Mean % WT Binding (human CD33 Q228A (human)): 115 % WT binding
- Mean % WT Binding (human CD33 Q236A (human)): 94.3 % WT binding
- Mean % WT Binding (human CD33 Q213A (human)): 103 % WT binding
- Mean % WT Binding (human CD33 I262A (human)): 119 % WT binding
- Mean % WT Binding (human CD33 H259A (human)): 119 % WT binding
- Mean % WT Binding (human CD33 G249A (human)): 114 % WT binding
- Mean % WT Binding (human CD33 V257A (human)): 124 % WT binding
- Mean % WT Binding (human CD33 E252A (human)): 120 % WT binding
